This assay has as its target human hisTRIM7-PRYSPRY (human) (UniProt Q9C029). Briefly: ITC. In general terms: Isothermal titration calorimetry measures the heat released or taken up as one component is titrated into another.

From publication PMC9394474 come the findings set out here.

In general, Kd refers to the equilibrium constant for the complex coming apart.

In turn, ac-LLQ (peptide) returned a Kd of 39 µM. This lies in the double-digit micromolar range.

As to dipeptide LQ, the Kd was determined as 200 µM. Compared with the last substance, the Kd is about 5.1-fold higher.
